Test results taken from patent US10987431B2, “Preparation method of adiposomes, and use thereof” (Institute Of Biophysics, Chinese Academy Of Sciences, priority 2015, dated 2021).

B1: MLDS proteins: lipid droplet resident protein of oleaginous bacterium RHA1, SEQ ID NO: 2 (protein)
chain: MTDQKTIDSVKTSLYAAVGAGDVVVQAVADVVAQVRSRAESTQGDVEERVGGAKERIAGLQEEVTEGVENLRDRLAGLPSELPEELAELREKFTADELRKVAEAYLKVASDLYTSLAERGEDTVERIRKQPVVEEGIGRAETAFGDAVELTEEALGTVARQTRAVGEQAAKLAGRASGRISDTAEGLGEAIADAGDEAALKVLDLGDQAEEASKDAADRVTATAADVQARADKAAPAKHAAPAKKAAPAKAAATPAPAPAKKAAAPAKKAAPAKKA
modifications: MLDS protein
B2: MDT-28 proteins: nematode lipid droplet resident protein, SEQ ID NO: 4 (protein)
chain: MTDVEQPVSVEDQQAQAQSYYDQVLGNAYVQTAINAYTKTKEFHPLLNSTLNSAEEKVSTVGNYAAQKAYDGYNSYYVKPKNTAYEAVSYGTERAKTAVESGKQAAIVGGTFGIGAAVVLTQFSLALSAGGAALVLEQVDSAKKLGSSAISTIKEAELAVEHRIFSALHQAQRIAMVPVEKITENTNSLLDILDGAVQKGLNIEVPPSVNLTIGQRVKNLASLIVQGVSNKLFKAHDHVIDPINERARNYLEQLSQSFVLLDIVREKKTWVIEKSNELSTSVFDFKKTLEEEAQKYKVAPEEMLMKHIQSTSEQLSTQLQSLREKGQNVFGDGTKIDSTIDYLENLKKNFTDAEDVYKVRDEVLNEGRQRIAELSTWTTSLLIISAEWQFEPEDLLIEELYFDAPPPVRTRNLYRNRA
modifications: MDT-28 protein
B3: ATGL: functional protein adipose triacylglycerol lipase, SEQ ID NO: 8 (protein)
chain: MFPREKTWNISFAGCGFLGVYYVGVASCLREHAPFLVANATHIYGASAGALTATALVTGVCLGEAGAKFIEVSKEARKRFLGPLHPSFNLVKIIRSFLLKVLPADSHEHASGRLGISLTRVSDGENVIISHFNSKDELIQANVCSGFIPVYCGLIPPSLQGVRYVDGGISDNLPLYELKNTITVSPFSGESDICPQDSSTNIHELRVTNTSIQFNLRNLYRLSKALFPPEPLVLREMCKQGYRDGLRFLQRNGLLNRPNPLLALPPARPHGPEDKDQAVESAQAEDYSQLPGEDHILEHLPARLNEALLEACVEPTDLLTTLSNMLPVRLATAMMVPYTLPLESALSFTIRLLEWLPDVPEDIRWMKEQTGSICQYLVMRAKRKLGRHLPSRLPEQVELRRVQSLPSVPLSCAAYREALPGWMRNNLSLGDALAKWEECQRQLLLGLFCTNVAFPPEALRMRAPADPAPAPADPASPQHQLAGPAPLLSTPAPEARPVIGALGL
modifications: ATGL protein
B4: Perilipin-2 proteins: lipid droplet resident protein of mammals, SEQ ID NO: 6, expressed with SMT3 tag cleaved by Ulp1 (protein)
chain: MASVAVDPQPSVVTRVVNLPLVSSTYDLMSSAYLSTKDQYPYLKSVCEMAENGVKTITSVAMTSALPIIQKLEPQIAVANTYACKGLDRIEERLPILNQPSTQIVANAKGAVTGAKDAVTTTVTGAKDSVASTITGVMDKTKGAVTGSVEKTKSVVSGSINTVLGSRMMQLVSSGVENALTKSELLVEQYLPLTEEELEKEAKKVEGFDLVQKPSYYVRLGSLSTKLHSRAYQQALSRVKEAKQKSQQTISQLHSTVHLIEFARKNVYSANQKIQDAQDKLYLSWVEWKRSIGYDDTDESHCAEHIESRTLAIARNLTQQLQTTCHTLLSNIQGVPQNIQDQAKHMGVMAGDIYSVFRNAASFKEVSDSLLTSSKGQLQKMKESLDDVMDYLVNNTPLNWLVGPFYPQLTESQNAQDQGAEMDKSSQETQRSEHKTH
modifications: Perilipin-2 protein

Key:
adiposome a [1] = experiment: Recruitment of resident proteins, functional proteins and apolipoprotein to adiposomes (SDS-PAGE, silver staining); assay type: binding
Method: a1, 5 μg SMT3-Perilipin-2 proteins, 25 ng Ulp1 and 500 adiposome a prepared in Example 1 were mixed to obtain 1000 mixed system.
a2, After the step a1 was completed, a mixed system was obtained by incubating at room temperature for 1 h (the practical operation may be performed on ice).
a3, After the step a2 was completed, the mixed system was taken to centrifuge at 20000 g for 5 min, and the liquid phase system presented two layers (the upper layer was adiposomes). The lower solution was drawn out and the upper layer was kept.
a4, The upper layer after the step a3 was resuspended into 1000 buffer B and centrifuged at 20000 g for 5 min, and the liquid phase system presented two layers (the upper layer was adiposomes). The lower solution was drawn out and the upper layer was kept.
a5, The upper layer after the step a4 was resuspended into 1000 buffer B and centrifuged at 20000 g for 5 min, and the liquid phase system presented two layers. The lower solution was drawn out and the upper layer was kept (i.e., adiposomes).
5 μg SMT3-Perilipin-2 proteins, adiposomes obtained in the step a5 and the lower solution drawn in the step a3 were all subjected to SDS-PAGE, followed by silver staining detection.
b1, 5 μg MLDS proteins and 50 μl adiposome a prepared in Example 1 were mixed to obtain 1000 mixed system.
b2, After the step b1 was completed, a mixed system was obtained by incubating at room temperature for 1 h (the practical operation may be performed on ice).
b3, After the step b2 was completed, the mixed system was taken to centrifuge at 20000 g for 5 min, and the liquid phase system presented two layers (the upper layer was adiposomes). The lower solution was drawn out and the upper layer was kept.
b4, The upper layer after the step b3 was resuspended into 1000 buffer B and centrifuged at 20000 g for 5 min, and the liquid phase system presented two layers (the upper layer was adiposomes). The lower solution was drawn out and the upper layer was kept.
b5, The upper layer after the step b4 was resuspended into 1000 buffer B and centrifuged at 20000 g for 5 min, and the liquid phase system presented two layers. The lower solution was drawn out and the upper layer was kept (i.e., adiposomes).
5 μg MLDS proteins, adiposomes obtained in the step b5 and the lower solution drawn in the step b3 were all subjected to SDS-PAGE, followed by silver staining detection.
The MLDS proteins in the step (2) were replaced with MDT-28 proteins, without other changes in other steps. The results were seen from lanes 4, 5 and 6 in FIG. 6 (lane 4 was total proteins (MDT-28 proteins), lane 5 was adiposome recruited proteins, and lane 6 was solution proteins). […] The adiposomes recruited with MDT-28 proteins were named as artificial lipid droplet MDT-28.
The MLDS proteins in the step (2) were replaced with Bovine serum albumin, without other changes in other steps. The results were seen from lanes 11, 12 and 13 in FIG. 6 (lane 11 was total proteins (Bovine serum albumin), lane 12 was adiposome recruited proteins, and lane 13 was solution proteins).
SMT3-Perilipin-2 proteins in the (1) of step 1 were replaced with SMT3-ATGL proteins, and 50 μl adiposome a was replaced with 30 μl adiposome a, without other changes in other steps, to obtain adiposomes recruited with ATGL.
5 μg MLDS proteins in the (2) of step 1 were replaced with 9 μg Apo A-I, without other changes in other steps, to obtain adiposomes recruited with Apo A-I. The results were seen from B in FIG. 10 (lane 1 was adiposome recruited proteins, lane 2 was solution proteins, and lane 3 was total proteins (Apo A-I)). […] The adiposome recruited with Apo A-I was named as artificial lipoprotein Apo A-I.

adiposome a [2] = experiment: Determination of protein saturation degree on adiposomes; assay type: binding; conditions: Western blot
Method: Determination of protein saturation degree: SMT3-Perilipin-2 proteins, 25 ng Ulp1 and 30 μl adiposome a prepared in Example 1 were mixed to obtain 50 μl mixed system, and the concentrations of SMT3-Perilipin-2 proteins in the mixed system were 0.015 μg/μl, 0.030 μg/μl, 0.056 μg/μl, 0.080 μg/μl, 0.101 μg/μl, 0.137 μg/μl, 0.166 μg/μl or 0.191 μg/μl. Then, artificial lipid droplets were obtained according to the above steps a2 to a5, and were subjected to SDS-PAGE, followed by staining with colloid blue, or were subjected to Western blot detection using Perilipin-2 antibody as primary antibody. The results were seen from C in FIG. 7 (in which a was the result of colloid blue staining, b was the result of Western blot detection).
Determination of protein saturation degree: SMT3-ATGL proteins, and 500 adiposome a prepared in Example 1 were mixed to obtain 1000 mixed system, and the concentrations of SMT3-ATGL proteins in the mixed system were 0.091 μg/μl, 0.132 μg/μl, 0.171 μg/μl, 0.209 μg/μl, 0.244 μg/μl, 0.278 μg/μl or 0.310 μg/μl. Then artificial lipid droplets were obtained according to the a2 to a5 of step 1, and were subjected to SDS-PAGE, followed by silver staining, or were subjected to Western blot detection using ATGL antibody (Cell Signaling Technology, Danvers, Mass., the product item: 2138) as primary antibody. […]

[3] = incubating at room temperature for 1 h, SDS-PAGE, silver staining

Molecule	proteins recruited to adiposome a (adiposome a [1]; [3])	other results
Bovine serum albumin: purchased from Sigma, product item A4612; control protein [reference compound]		recruitment to adiposome a (in words) (adiposome a [1]; [3]): no Bovine serum albumin was recruited
Apo A-I: apolipoprotein A1 from human, purified per Peitsch et al. 1989	about 50%	
B1	about 80%	
B2	about 90%	
B3		fraction of protein recruited to adiposome a (adiposome a [1]; SMT3-ATGL proteins, 30 μl adiposome a, incubating at normal temperature or 4° C.): about ⅓; protein concentration in the reaction system at which recruitment on adiposomes reached saturation (adiposome a [2]; 0.091-0.310 μg/μl SMT3-ATGL proteins, silver staining): 0.209 µg/µL
B4	about 50%	recruitment on adiposomes, saturation (in words) (adiposome a [2]; 0.015-0.191 μg/μl SMT3-Perilipin-2 proteins, colloid blue staining): saturable
